# Results taken from article PMC2975869.
# Experiments:
# [1] = target: endogenous PTH1R of A10 cells (rat (endogenous in A10)) (UniProt P25961)
# [2] = target: HA-tagged PTH1R (parathyroid hormone type 1 receptor), wild type (UniProt Q03431); assay: radioligand binding
# [3] = target: endogenous PTH1R of A10 cells (rat (endogenous in A10)) (UniProt P25961); assay: radioligand binding
# UniProt P25961, sequence (P25961 27-591): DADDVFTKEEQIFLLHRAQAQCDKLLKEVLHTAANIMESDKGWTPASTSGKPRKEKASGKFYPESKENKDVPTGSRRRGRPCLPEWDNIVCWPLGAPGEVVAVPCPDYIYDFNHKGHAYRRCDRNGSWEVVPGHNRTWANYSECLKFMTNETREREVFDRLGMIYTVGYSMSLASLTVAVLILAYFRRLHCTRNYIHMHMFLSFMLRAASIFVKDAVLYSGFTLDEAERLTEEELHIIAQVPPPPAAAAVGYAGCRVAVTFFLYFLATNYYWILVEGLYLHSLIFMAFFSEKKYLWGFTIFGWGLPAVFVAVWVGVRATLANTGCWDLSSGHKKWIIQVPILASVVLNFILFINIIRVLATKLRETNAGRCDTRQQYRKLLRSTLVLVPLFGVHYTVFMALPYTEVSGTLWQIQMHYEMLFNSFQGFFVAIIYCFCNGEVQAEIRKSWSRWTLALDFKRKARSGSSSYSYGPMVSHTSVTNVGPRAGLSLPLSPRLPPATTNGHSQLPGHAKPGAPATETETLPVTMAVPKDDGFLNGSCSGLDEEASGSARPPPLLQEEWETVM
"cAMP production in A10 cells in response to PTHrP(1-36), 30 min at 37 °C [1] [fold]",Substance,"Total Binding (TB), cells co-transfected with EBP50 [2]","Total Binding (TB), cells co-transfected with pcDNA3 [2]","Total Binding (TB), cells transfected with EBP50 [3]","Total Binding (TB), cells transfected with pcDNA3 [3]"
3,PTHrP (1-36)-NH2 (peptide),–,–,–,–
–,[125I]-PTH(1-34)NH2 (peptide),1980,1290,2470,1550
